Blank lines part the entries; values can stand above or below the binder they belong to.
How the values were obtained:
[1] = target: huCdc7 fused to DNA-binding domain of Gal4 (human); experiment: yeast two-hybrid assay, lacZ activity
myc-tagged H37 protein = target: T1, myc-tagged H37 protein
T1 chain: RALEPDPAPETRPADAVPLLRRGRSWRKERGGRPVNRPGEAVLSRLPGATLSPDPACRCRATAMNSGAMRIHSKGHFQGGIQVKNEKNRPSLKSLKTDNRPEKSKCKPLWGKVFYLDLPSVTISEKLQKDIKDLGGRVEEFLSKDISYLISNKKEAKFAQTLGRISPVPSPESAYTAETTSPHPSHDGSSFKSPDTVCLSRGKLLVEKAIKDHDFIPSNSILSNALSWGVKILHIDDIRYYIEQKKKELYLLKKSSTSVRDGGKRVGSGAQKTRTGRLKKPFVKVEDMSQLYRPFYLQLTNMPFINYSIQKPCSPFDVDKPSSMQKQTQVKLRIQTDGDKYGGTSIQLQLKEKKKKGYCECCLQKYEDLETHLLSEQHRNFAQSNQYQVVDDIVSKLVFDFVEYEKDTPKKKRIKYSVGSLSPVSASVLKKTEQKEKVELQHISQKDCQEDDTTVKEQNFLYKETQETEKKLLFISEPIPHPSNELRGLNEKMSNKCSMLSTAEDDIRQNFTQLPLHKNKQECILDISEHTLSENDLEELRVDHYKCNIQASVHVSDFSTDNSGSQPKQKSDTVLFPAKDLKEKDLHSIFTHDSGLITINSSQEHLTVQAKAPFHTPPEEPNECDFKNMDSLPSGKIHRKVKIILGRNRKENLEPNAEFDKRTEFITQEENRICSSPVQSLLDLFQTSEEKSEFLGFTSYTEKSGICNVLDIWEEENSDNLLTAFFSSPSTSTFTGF

binding ability with huCdc7 relative to full-length H37 [1]: 60%
B1: H37 deletion derivative ΔC fused to Gal4 activation domain (protein, not shown: large carriers)
chain: MNSGAMRIHSKGHFQGGIQVKNEKNRPSLKSLKTDNRPEKSKCKPLWGKVFYLDLPSVTISEKLQKDIKDLGGRVEEFLSKDISYLISNKKEAKFAQTLGRISPVPSPESAYTAETTSPHPSHDGSSFKSPDTVCLSRGKLLVEKAIKDHDFIPSNSILSNALSWGVKILHIDDIRYYIEQKKKELYLLKKSSTSVRDGGKRVGSGAQKTRTGRLKKPFVKVEDMSQLYRPFYLQLTNMPFINYSIQKPCSPFDVDKPSSMQKQTQVKLRIQTDGDKYGGTSIQLQLKEKKKKGYCECCLQKYEDLETHLLSEQHRNFAQSNQYQVVDDIVSKLVFDFVEYEKDTPKKKRIKYSVGSLSPVSASVLKKTEQKEKVELQHISQKDCQEDDTTVKEQNFLYKETQETEKKLLFISEPIPHPSNELRGLNEKMSNKCSMLSTAEDDIRQNFTQLPLHKNKQECILDISEHTLSENDLEELRVDHYKCNIQASVHVSDFSTDNSGSQPKQKSDTVLFPAKDLKEKDLHSIFTHDSGLITINSSQEHLTVQAKAPFHTPPEEPNECDFKNMDSLPSGKIHRKVKIILGRNRKENLEPNAEFDKRTEFITQEENRICSSPVQSLLDLFQTSEEKSEFLGFTSYTEKSGICNVLDIWEEEN

B2: huCdc7 (protein)
chain: MEASLGIQMDEPMAFSPQRDRFQAEGSLKKNEQNFKLAGVKKDIEKLYEAVPQLSNVFKIEDKIGEGTFSSVYLATAQLQVGPEEKIALKHLIPTSHPIRIAAELQCLTVAGGQDNVMGVKYCFRKNDHVVIAMPYLEHESFLDILNSLSFQEVREYMLNLFKALKRIHQFGIVHRDVKPSNFLYNRRLKKYALVDFGLAQGTHDTKIELLKFVQSEAQQERCSQNKSHIITGNKIPLSGPVPKELDQQSTTKASVKRPYTNAQIQIKQGKDGKEGSVGLSVQRSVFGERNFNIHSSISHESPAVKLMKQSKTVDVLSRKLATKKKAISTKVMNSAVMRKTASSCPASLTCDCYATDKVCSICLSRRQQVAPRAGTPGFRAPEVLTKCPNQTTAIDMWSAGVIFLSLLSGRYPFYKASDDLTALAQIMTIRGSRETIQAAKTFGKSILCSKEVPAQDLRKLCERLRGMDSSTPKLTSDIQGHASHQPAISEKTDHKASCLVQTPPGQYSGNSFKKGDSNSCEHCFDEYNTNLEGWNEVPDEAYDLLDKLLDLNPASRITAEEALLHPFFKDMSL
in vitro kinase reaction of huCdc7/H37 immunoprecipitates with GST-MCM3 fusion protein as substrate (myc-tagged H37 protein): phosphorylation in a good efficiency was observed for the MCM3 protein in both immunoprecipitate of anti-huCdc7 antibody and immunoprecipitate of anti-myc antibody

From patent US6897054
